Laboratory results: the supplement of paper PMC9112550, “Optimization of the antimicrobial peptide Bac7 by deep mutational scanning” (BMC Biology, 2022)

System: Escherichia coli TOP10
Experiment: shrunken log2 fold change of peptide-encoding DNA abundance (4.5 h post-induction vs induction); higher = less antimicrobial activity (less host growth inhibition)
Conditions: time post-induction: 4.5 h; library: site-saturation at positions 5, 18, 19, 20
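Note: peptides expressed intracellularly from a pBAD plasmid library in pooled LB shake-flask culture, induced with 0.3% L-arabinose, DNA abundance read by NGS, three biological replicates, DESeq2 with apeglm shrinkage.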

| Sequence | shrunken log2 fold change |
| --- | --- |
| RRIRHRPPRLPRPRPRPNQEPRP | -0.00942 |
| RRIRTRPPRLPRPRPRPVNVPRP | -0.172 |
| RRIRERPPRLPRPRPRPVVCPRP | 0.0991 |
| RRIRCRPPRLPRPRPRPWLDPRP | -0.273 |
| RRIRDRPPRLPRPRPRPKHLPRP | -0.0209 |
| RRIRPRPPRLPRPRPRPKKVPRP | 0.0308 |
| RRIRWRPPRLPRPRPRPDCMPRP | 0.259 |
| RRIRSRPPRLPRPRPRPKLWPRP | 0.564 |
| RRIRPRPPRLPRPRPRPMRLPRP | 0.0536 |
| RRIRGRPPRLPRPRPRPMEMPRP | 0.756 |
| RRIRCRPPRLPRPRPRPDAWPRP | 0.141 |
| RRIRDRPPRLPRPRPRPIDSPRP | -0.0258 |
| RRIRDRPPRLPRPRPRPMFWPRP | 0.0751 |
| RRIRPRPPRLPRPRPRPDMPPRP | -0.302 |
| RRIRRRPPRLPRPRPRPKYYPRP | -0.199 |
| RRIRNRPPRLPRPRPRPHSWPRP | 0.00366 |
| RRIRVRPPRLPRPRPRPWYDPRP | -0.00243 |
| RRIRCRPPRLPRPRPRPDLFPRP | 0.162 |
| RRIRMRPPRLPRPRPRPWIAPRP | -0.00608 |
| RRIRLRPPRLPRPRPRPVHLPRP | -0.0235 |
| RRIRARPPRLPRPRPRPLCHPRP | 0.173 |
| RRIRYRPPRLPRPRPRPWIMPRP | -0.253 |
| RRIRWRPPRLPRPRPRPRWDPRP | 0.0641 |
| RRIRSRPPRLPRPRPRPAEHPRP | 0.0851 |
| RRIRYRPPRLPRPRPRPSDGPRP | -0.327 |

| Sequence | shrunken log2 fold change |
| --- | --- |
| RRIRARPPRLPRPRPRPYLEPRP | 0.982 |
| RRIRWRPPRLPRPRPRPYNKPRP | -1.34 |
| RRIRCRPPRLPRPRPRPWRNPRP | -0.157 |
| RRIRGRPPRLPRPRPRPWKWPRP | 0.0325 |
| RRIRCRPPRLPRPRPRPYCWPRP | -0.331 |
| RRIRTRPPRLPRPRPRPRKIPRP | -0.0707 |
| RRIRHRPPRLPRPRPRPSLAPRP | -0.219 |
| RRIRKRPPRLPRPRPRPVEPPRP | 0.505 |
| RRIRPRPPRLPRPRPRPDGGPRP | -0.129 |
| RRIRIRPPRLPRPRPRPMLGPRP | -0.146 |
| RRIRLRPPRLPRPRPRPLWSPRP | 0.0537 |
| RRIRLRPPRLPRPRPRPLTYPRP | -0.448 |
| RRIRRRPPRLPRPRPRPAPHPRP | 0.858 |
| RRIRCRPPRLPRPRPRPCDNPRP | -0.0831 |
| RRIRWRPPRLPRPRPRPAPKPRP | 0.992 |
| RRIRSRPPRLPRPRPRPYWFPRP | -0.624 |
| RRIRHRPPRLPRPRPRPWHSPRP | -0.22 |
| RRIRKRPPRLPRPRPRPGDHPRP | 0.014 |
| RRIRPRPPRLPRPRPRPWMRPRP | 0.715 |
| RRIRARPPRLPRPRPRPMTFPRP | -0.191 |
| RRIRIRPPRLPRPRPRPLSTPRP | -0.599 |
| RRIRPRPPRLPRPRPRPKDHPRP | 0.0743 |
| RRIRIRPPRLPRPRPRPNKKPRP | -0.0918 |
| RRIRYRPPRLPRPRPRPLQTPRP | 0.0147 |
| RRIRMRPPRLPRPRPRPTNAPRP | 0.408 |

| Sequence | shrunken log2 fold change |
| --- | --- |
| RRIRTRPPRLPRPRPRPGVIPRP | 0.0978 |
| RRIRIRPPRLPRPRPRPYYHPRP | -0.839 |
| RRIRWRPPRLPRPRPRPAHMPRP | 0.0152 |
| RRIRRRPPRLPRPRPRPDFTPRP | 0.0748 |
| RRIRQRPPRLPRPRPRPFTQPRP | -0.0608 |
| RRIRWRPPRLPRPRPRPPFNPRP | 0.31 |
| RRIRCRPPRLPRPRPRPGKDPRP | 0.124 |
| RRIRSRPPRLPRPRPRPSVFPRP | -0.23 |
| RRIRDRPPRLPRPRPRPQACPRP | 0.303 |
| RRIRMRPPRLPRPRPRPLCPPRP | -0.0953 |
| RRIRERPPRLPRPRPRPNDYPRP | -0.41 |
| RRIRLRPPRLPRPRPRPFRSPRP | -0.0185 |
| RRIRWRPPRLPRPRPRPHVDPRP | -0.127 |
| RRIRRRPPRLPRPRPRPMNQPRP | 0.0252 |
| RRIRIRPPRLPRPRPRPILIPRP | -0.097 |
| RRIRNRPPRLPRPRPRPFHPPRP | 0.0752 |
| RRIRPRPPRLPRPRPRPITRPRP | 0.31 |
| RRIRIRPPRLPRPRPRPLEMPRP | -0.373 |
| RRIRDRPPRLPRPRPRPNDDPRP | 0.226 |
| RRIRQRPPRLPRPRPRPCFEPRP | 0.0423 |
| RRIRCRPPRLPRPRPRPVLQPRP | 1.24 |
| RRIRYRPPRLPRPRPRPAHCPRP | 0.0564 |
| RRIRDRPPRLPRPRPRPHKAPRP | -0.0142 |
| RRIRWRPPRLPRPRPRPAGQPRP | 0.218 |
| RRIRLRPPRLPRPRPRPMIRPRP | -0.154 |

| Sequence | shrunken log2 fold change |
| --- | --- |
| RRIRGRPPRLPRPRPRPICGPRP | 0.728 |
| RRIRARPPRLPRPRPRPIDYPRP | -0.228 |
| RRIRERPPRLPRPRPRPVLIPRP | -0.153 |
| RRIRYRPPRLPRPRPRPGHPPRP | -0.0687 |
| RRIRNRPPRLPRPRPRPRKLPRP | -0.0702 |
| RRIRQRPPRLPRPRPRPSMTPRP | -0.285 |
| RRIRNRPPRLPRPRPRPPAYPRP | 0.0856 |
| RRIRLRPPRLPRPRPRPKMMPRP | -0.167 |
| RRIRDRPPRLPRPRPRPVQSPRP | -0.0116 |
| RRIRGRPPRLPRPRPRPGAGPRP | 1.05 |
| RRIRVRPPRLPRPRPRPICMPRP | -0.0265 |
| RRIRRRPPRLPRPRPRPTRTPRP | 0.681 |
| RRIRCRPPRLPRPRPRPDFKPRP | -0.219 |
| RRIRMRPPRLPRPRPRPEQDPRP | 0.0255 |
| RRIRMRPPRLPRPRPRPKTEPRP | 0.155 |
| RRIRIRPPRLPRPRPRPEEEPRP | -0.031 |
| RRIRRRPPRLPRPRPRPICKPRP | 0.0422 |
| RRIRQRPPRLPRPRPRPVMLPRP | -0.124 |
| RRIRPRPPRLPRPRPRPFYPPRP | -0.854 |
| RRIRKRPPRLPRPRPRPHGNPRP | -0.0306 |
| RRIRHRPPRLPRPRPRPCMMPRP | -0.0344 |
| RRIRLRPPRLPRPRPRPAYKPRP | -0.00989 |
| RRIRNRPPRLPRPRPRPTGAPRP | 0.256 |
| RRIRSRPPRLPRPRPRPVRRPRP | 0.558 |
| RRIRRRPPRLPRPRPRPIRQPRP | 0.00198 |

| Sequence | shrunken log2 fold change |
| --- | --- |
| RRIRQRPPRLPRPRPRPWIEPRP | -0.0606 |
| RRIRPRPPRLPRPRPRPEDLPRP | 0.0558 |
| RRIRDRPPRLPRPRPRPMQFPRP | -0.0264 |
| RRIRCRPPRLPRPRPRPIKNPRP | -0.311 |
| RRIRGRPPRLPRPRPRPHTRPRP | 0.559 |
| RRIRFRPPRLPRPRPRPPLHPRP | 0.198 |
| RRIRNRPPRLPRPRPRPGIVPRP | 0.367 |
| RRIRWRPPRLPRPRPRPLIIPRP | -0.269 |
| RRIRSRPPRLPRPRPRPPWMPRP | 0.167 |
| RRIRWRPPRLPRPRPRPIHDPRP | -0.118 |
| RRIRSRPPRLPRPRPRPWNQPRP | 0.0379 |
| RRIRSRPPRLPRPRPRPIDQPRP | -0.174 |
| RRIRLRPPRLPRPRPRPFFEPRP | 0.058 |
| RRIRVRPPRLPRPRPRPNKEPRP | 0.0955 |
| RRIRTRPPRLPRPRPRPHTPPRP | 0.0178 |
| RRIRPRPPRLPRPRPRPMSWPRP | 0.245 |
| RRIRPRPPRLPRPRPRPNCNPRP | -0.518 |
| RRIRYRPPRLPRPRPRPMMHPRP | -0.626 |
| RRIRFRPPRLPRPRPRPPHVPRP | 0.203 |
| RRIRARPPRLPRPRPRPSHCPRP | -0.101 |
| RRIRWRPPRLPRPRPRPNVVPRP | -0.144 |
| RRIRERPPRLPRPRPRPHMMPRP | -1.14 |
| RRIRKRPPRLPRPRPRPMDDPRP | 0.123 |
| RRIRERPPRLPRPRPRPGLHPRP | -0.124 |
| RRIRIRPPRLPRPRPRPCCGPRP | -0.252 |
